Experimental data taken from patent publication US20240261333A1 (published 2024).

T1: CCT3 (human, UniProt P49368 1-545)
T1 construct: also called NP_005989.3
T1 sequence (looked up): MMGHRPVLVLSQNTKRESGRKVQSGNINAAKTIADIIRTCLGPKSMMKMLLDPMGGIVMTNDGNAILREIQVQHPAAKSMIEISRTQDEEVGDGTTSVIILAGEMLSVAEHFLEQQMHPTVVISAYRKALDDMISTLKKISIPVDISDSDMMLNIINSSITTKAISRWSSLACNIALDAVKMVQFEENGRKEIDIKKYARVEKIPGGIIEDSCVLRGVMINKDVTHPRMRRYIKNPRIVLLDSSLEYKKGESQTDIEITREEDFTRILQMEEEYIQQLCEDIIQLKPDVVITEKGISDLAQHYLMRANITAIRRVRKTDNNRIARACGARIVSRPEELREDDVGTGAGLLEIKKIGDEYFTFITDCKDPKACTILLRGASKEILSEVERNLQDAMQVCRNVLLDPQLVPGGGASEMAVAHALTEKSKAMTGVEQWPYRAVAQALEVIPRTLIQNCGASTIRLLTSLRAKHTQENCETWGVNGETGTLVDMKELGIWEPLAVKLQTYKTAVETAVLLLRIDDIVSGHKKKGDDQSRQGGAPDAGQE

T2: IMMT (human, UniProt Q16891-4 34-757, limits assumed)
T2 construct: also called NP_001093639.1 (+3)
T2 sequence (looked up): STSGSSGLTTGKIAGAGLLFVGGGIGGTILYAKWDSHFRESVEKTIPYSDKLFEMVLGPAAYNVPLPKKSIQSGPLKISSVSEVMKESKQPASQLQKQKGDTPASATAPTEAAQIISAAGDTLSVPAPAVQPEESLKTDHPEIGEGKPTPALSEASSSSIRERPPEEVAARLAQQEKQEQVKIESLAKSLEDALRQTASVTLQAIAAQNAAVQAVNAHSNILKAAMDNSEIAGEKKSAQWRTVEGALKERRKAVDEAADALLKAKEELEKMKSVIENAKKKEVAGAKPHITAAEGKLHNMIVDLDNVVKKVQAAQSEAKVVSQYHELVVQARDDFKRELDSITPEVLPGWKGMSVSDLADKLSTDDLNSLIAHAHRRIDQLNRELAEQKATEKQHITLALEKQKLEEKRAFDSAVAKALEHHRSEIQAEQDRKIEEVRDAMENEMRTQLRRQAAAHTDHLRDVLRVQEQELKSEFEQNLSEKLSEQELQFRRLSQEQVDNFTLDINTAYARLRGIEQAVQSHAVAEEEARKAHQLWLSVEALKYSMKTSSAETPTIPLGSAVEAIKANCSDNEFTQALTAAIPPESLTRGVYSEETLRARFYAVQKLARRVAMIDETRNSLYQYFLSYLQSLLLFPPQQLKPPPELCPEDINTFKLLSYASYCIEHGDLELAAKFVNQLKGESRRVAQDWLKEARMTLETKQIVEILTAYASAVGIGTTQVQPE

T3: SPARC (human, UniProt P09486 18-303)
T3 construct: also called NP_001296372.1 (+1)
T3 sequence (looked up): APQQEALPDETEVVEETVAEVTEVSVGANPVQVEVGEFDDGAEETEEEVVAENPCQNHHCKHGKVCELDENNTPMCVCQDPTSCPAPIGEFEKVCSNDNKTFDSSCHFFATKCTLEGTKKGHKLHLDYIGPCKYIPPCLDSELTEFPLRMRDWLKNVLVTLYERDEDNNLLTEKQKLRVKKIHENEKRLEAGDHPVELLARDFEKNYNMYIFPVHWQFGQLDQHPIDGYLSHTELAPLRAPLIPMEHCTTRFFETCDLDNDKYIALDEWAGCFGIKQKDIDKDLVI


How the values were obtained:
Test in all cases: co-IP with anti-FLAG, N-FLAG B3GNT2, mass spectrometry
[1] = target: T1, CCT3
[2] = target: RPL23 (human, UniProt P62829 1-140)
[3] = target: T2, IMMT
[4] = target: T3, SPARC

| Binder | co-IP mass spectrometry count [1] | co-IP mass spectrometry count [2] | co-IP mass spectrometry count [3] | co-IP/MS count, N-term FLAG [4] |
| --- | --- | --- | --- | --- |
| N-terminal FLAG tagged B3GNT2 (enzyme, human, UniProt Q9NY97 1-397, looked up, FLAG-tagged ORF overexpressed in cells; pulled down from lysate with mouse anti-FLAG; also called N-FLAG B3GNT2; N-term FLAG; not shown: N-terminal FLAG tag) MSVGRRRIKLLGILMMANVFIYFIMEVSKSSSQEKNGKGEVIIPKEKFWKISTPPEAYWNREQEKLNRQYNPILSMLTNQTGEAGRLSNISHLNYCEPDLRVTSVVTGFNNLPDRFKDFLLYLRCRNYSLLIDQPDKCAKKPFLLLAIKSLTPHFARRQAIRESWGQESNAGNQTVVRVFLLGQTPPEDNHPDLSDMLKFESEKHQDILMWNYRDTFFNLSLKEVLFLRWVSTSCPDTEFVFKGDDDVFVNTHHILNYLNSLSKTKAKDLFIGDVIHNAGPHRDKKLKYYIPEVVYSGLYPPYAGGGGFLYSGHLALRLYHITDQVHLYPIDDVYTGMCLQKLGLVPEKHKGFRTFDIEEKNKNNICSYVDLMLVHSRKPQEMIDIWSQLQSAHLKC | 0 | 7 | 23 |  |
| N-terminal FLAG tagged B3GNT2 (enzyme, human, UniProt Q9NY97 1-397, looked up, FLAG-tagged ORF overexpressed in A375 cells; pulled down from the lysate with mouse anti-FLAG; also called N-FLAG B3GNT2; N-term FLAG; not shown: N-terminal FLAG tag) MSVGRRRIKLLGILMMANVFIYFIMEVSKSSSQEKNGKGEVIIPKEKFWKISTPPEAYWNREQEKLNRQYNPILSMLTNQTGEAGRLSNISHLNYCEPDLRVTSVVTGFNNLPDRFKDFLLYLRCRNYSLLIDQPDKCAKKPFLLLAIKSLTPHFARRQAIRESWGQESNAGNQTVVRVFLLGQTPPEDNHPDLSDMLKFESEKHQDILMWNYRDTFFNLSLKEVLFLRWVSTSCPDTEFVFKGDDDVFVNTHHILNYLNSLSKTKAKDLFIGDVIHNAGPHRDKKLKYYIPEVVYSGLYPPYAGGGGFLYSGHLALRLYHITDQVHLYPIDDVYTGMCLQKLGLVPEKHKGFRTFDIEEKNKNNICSYVDLMLVHSRKPQEMIDIWSQLQSAHLKC |  |  |  | 0 |
